Assay results taken from article PMC9795466.

Biological target: thrombin (human, UniProt P00734;P00734 328-363;364-622)
Test: organic electrochemical transistor

TTTTTAGTCCGTGGTAGGGCAGGTTGGGGTGACT (ssDNA, 5' DBCO-TEG) [DBCO-HD22 thrombin aptamer]
Kd: 103 ± 44 nM
